Assay results published in patent US20050042208A1.

Target: CD44 existing on the cell surface of CTLs (human) (UniProt P16070)
Assay: cell-based or functional assay

Chain of UniProt P16070 (P16070 21-742): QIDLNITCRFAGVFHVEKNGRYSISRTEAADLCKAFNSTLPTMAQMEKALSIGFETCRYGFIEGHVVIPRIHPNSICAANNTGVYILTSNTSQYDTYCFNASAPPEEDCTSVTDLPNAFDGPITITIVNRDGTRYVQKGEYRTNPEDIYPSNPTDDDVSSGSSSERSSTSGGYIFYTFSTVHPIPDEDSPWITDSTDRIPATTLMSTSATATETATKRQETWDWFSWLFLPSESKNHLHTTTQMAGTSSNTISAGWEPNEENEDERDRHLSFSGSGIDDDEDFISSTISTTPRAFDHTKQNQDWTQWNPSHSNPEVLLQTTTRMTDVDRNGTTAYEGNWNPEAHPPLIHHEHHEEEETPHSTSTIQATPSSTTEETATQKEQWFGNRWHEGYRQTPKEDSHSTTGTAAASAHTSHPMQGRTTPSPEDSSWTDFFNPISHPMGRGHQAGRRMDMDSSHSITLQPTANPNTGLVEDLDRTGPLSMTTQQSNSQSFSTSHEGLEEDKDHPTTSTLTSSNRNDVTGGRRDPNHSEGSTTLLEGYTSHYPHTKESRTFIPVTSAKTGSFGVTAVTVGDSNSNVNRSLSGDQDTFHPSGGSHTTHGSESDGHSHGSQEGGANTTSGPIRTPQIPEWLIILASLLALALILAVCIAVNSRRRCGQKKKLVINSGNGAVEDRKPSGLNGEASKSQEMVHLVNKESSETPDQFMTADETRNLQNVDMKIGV

anti-CD44 antibody (hyaluronic acid-bound Non-blocking antibody; HA Non-blocking Anti-CD44 Antibody), monoclonal, manufactured by Ancell
Cytotoxic Activity (%), E/T Ratio 3, peptide pulse +, after expansion with antibody: 32.4% | Cytotoxic Activity (%), E/T Ratio 3, peptide pulse -, after expansion with antibody: 10.3% | Cytotoxic Activity (%), E/T Ratio 10, peptide pulse +, after expansion with antibody: 60.1% | Cytotoxic Activity (%), E/T Ratio 10, peptide pulse -, after expansion with antibody: 14.2% | Cytotoxic Activity (%), E/T Ratio 30, peptide pulse +, after expansion with antibody: 105% | Cytotoxic Activity (%), E/T Ratio 30, peptide pulse -, after expansion with antibody: 21.2%
